Data published in US20240018502A1.
Substitutions are numbered along the chain they refer to. Numbers in names are those of the source.

B1: MTSP-1 ins97aN/F97H/T98D/F99L/C122S/Q192E/D217Q/K224S (enzyme)
chain: VVGGTDADEGEWPWQVSLHALGQGHICGASLISPNWLVSAAHCYIDDRGFRYSDPTQWTAFLGLHDQSQRSAPGVQERRLKRIISHPFFNDHNDLDYDIALLELEKPAEYSSMVRPISLPDASHVFPAGKAIWVTGWGHTQYGGTGALILQKGEIRVINQTTCENLLPQQITPRMMCVGFLSGGVDSCEGDSGGPLSSVEADGRIFQAGVVSWGQGCAQRNSPGVYTRLPLFRDWIKENTGV
B2: MTSP-1 ins97aA/F97G/T98N/F99L/C122S/Q175M/Q192T/K224A (enzyme)
chain: B1 chain with H92G, N93A, D94N, Q170M, E189T, Q215D, S222A
B3: MTSP-1 S90T/D96A/ins97aE/F97T/T98G/F99L/C122S/Q175L/Q192D (enzyme)
chain: B1 chain with S85T, D91A, H92T, N93E, D94G, Q170L, E189D, Q215D, S222K
B4: MTSP-1 E24K/ins97aE/F97T/T98G/F99L/C122S/A152S/Q175L/Q192D (enzyme)
chain: B1 chain with E9K, H92T, N93E, D94G, A147S, Q170L, E189D, Q215D, S222K
B5: MTSP-1 I41R/ins97aV/F97D/T98P/F99L/C122S/G151N/Q192G (enzyme)
chain: B1 chain with I26R, H92D, N93V, D94P, G146N, E189G, Q215D, S222K
B6: MTSP-1 ins97aE/F97T/T98G/F99L/C122S/L153Q/Q175L/Q192D (enzyme)
chain: B1 chain with H92T, N93E, D94G, L148Q, Q170L, E189D, Q215D, S222K
B7: MTSP-1 D96V/ins97aE/F97T/T98G/F99L/C122S/Q175L/Q192D (enzyme)
chain: B1 chain with D91V, H92T, N93E, D94G, Q170L, E189D, Q215D, S222K
B8: MTSP-1 I41R/ins97aE/F97T/T98G/F99L/A112V/C122S/Q175L/Q192E (enzyme)
chain: B1 chain with I26R, H92T, N93E, D94G, A108V, Q170L, Q215D, S222K
B9: MTSP-1 Y59F/ins97aE/F97T/T98G/F99L/C122S/L153Q/Q175L/Q192E (enzyme)
chain: B1 chain with Y44F, H92T, N93E, D94G, L148Q, Q170L, Q215D, S222K
B10: MTSP-1 I41R/F97T/ins97aE/T98G/F99L/C122S/G151D/Q175I/Q192E (enzyme)
chain: B1 chain with I26R, H92T, N93E, D94G, G146D, Q170I, Q215D, S222K
B11: MTSP-1 Y59F/F97T/ins97aE/T98G/F99L/C122S/Q175L/Q192D (enzyme)
chain: B1 chain with Y44F, H92T, N93E, D94G, Q170L, E189D, Q215D, S222K
B12: MTSP-1 Y59F/ins97aE/F97T/T98G/F99L/C122S/Q175L/Q192E (enzyme)
chain: B1 chain with Y44F, H92T, N93E, D94G, Q170L, Q215D, S222K
B13: MTSP-1 I41R/Y59F/ins97aE/F97T/T98G/F99L/C122S/L153Q/Q175L/Q192E (enzyme)
chain: B1 chain with I26R, Y44F, H92T, N93E, D94G, L148Q, Q170L, Q215D, S222K
B14: MTSP-1 ins97aD/F97Q/T98G/F99L/C122S/Q175L/Q192E/D217F/K224S (enzyme)
chain: B1 chain with H92Q, N93D, D94G, Q170L, Q215F
B15: MTSP-1 I41D/ins97aE/F97T/T98G/F99L/C122S/G151N/Q175L/Q192E (enzyme)
chain: B1 chain with I26D, H92T, N93E, D94G, G146N, Q170L, Q215D, S222K
B16: MTSP-1 I41R/Y59F/ins97aE/F97T/T98G/F99L/C122S/Q175L/Q192D (enzyme)
chain: B1 chain with I26R, Y44F, H92T, N93E, D94G, Q170L, E189D, Q215D, S222K
B17: MTSP-1 ins97aD/F97G/T98N/F99L/C122S/Q192E/D217Y/K224R (enzyme)
chain: B1 chain with H92G, N93D, D94N, Q215Y, S222R
B18: MTSP-1 I41D/ins97aE/F97T/T98G/F99L/C122S/Q175L/Q192E (enzyme)
chain: B1 chain with I26D, H92T, N93E, D94G, Q170L, Q215D, S222K
B19: MTSP-1 ins97aE/F97Y/T98S/F99L/C122S/Q192T/D217Q/K224R (enzyme)
chain: B1 chain with H92Y, N93E, D94S, E189T, S222R
B20: MTSP-1 ins97aV/F97D/T98P/F99L/C122S/Q175L/Q192E (enzyme)
chain: B1 chain with H92D, N93V, D94P, Q170L, Q215D, S222K
B21: MTSP-1 ins97aE/F97T/T98G/F99L/C122S/Q175L/Q192E/Q209L (enzyme)
chain: B1 chain with H92T, N93E, D94G, Q170L, Q207L, Q215D, S222K
B22: MTSP-1 F97D/ins97aV/T98P/F99L/C122S/G151N/Q192G (enzyme)
chain: B1 chain with H92D, N93V, D94P, G146N, E189G, Q215D, S222K
B23: MTSP-1 I41R/ins97aE/F97T/T98G/F99L/C122S/G151N/Q175S/Q192D (enzyme)
chain: B1 chain with I26R, H92T, N93E, D94G, G146N, Q170S, E189D, Q215D, S222K
B24: MTSP-1 I41R/ins97aE/F97T/T98G/F99L/C122S/G151S/Q175L/Q192E (enzyme)
chain: B1 chain with I26R, H92T, N93E, D94G, G146S, Q170L, Q215D, S222K
B25: MTSP-1 I41R/F97T/ins97aE/T98G/F99L/C122S/G151N/Q175I/Q192D (enzyme)
chain: B1 chain with I26R, H92T, N93E, D94G, G146N, Q170I, E189D, Q215D, S222K
B26: MTSP-1 ins97aG/F97N/T98D/F99L/C122S/Q192E/D217H/K224A (enzyme)
chain: B1 chain with H92N, N93G, Q215H, S222A
B27: MTSP-1 Y59F/D96V/ins97aE/F97T/T98G/F99L/C122S/Q175L/Q192E (enzyme)
chain: B1 chain with Y44F, D91V, H92T, N93E, D94G, Q170L, Q215D, S222K
B28: MTSP-1 I41R/ins97aE/F97T/T98G/F99L/C122S/G151D/Q175I/Q192D (enzyme)
chain: B1 chain with I26R, H92T, N93E, D94G, G146D, Q170I, E189D, Q215D, S222K
B29: MTSP-1 ins97aE/F97T/T98G/F99L/C122S/I136M/L155M/N170D/Q175L/Q192E (enzyme)
chain: B1 chain with H92T, N93E, D94G, I132M, L150M, N165D, Q170L, Q215D, S222K
B30: MTSP-1 F97Q/ins97aT/T98M/C122S/Q192E/D217R/K224L (enzyme)
chain: B1 chain with H92Q, N93T, D94M, L95F, Q215R, S222L
B31: MTSP-1 Y59F/G60dS/R84H/ins97aE/F97T/T98G/F99L/C122S/Q175L/Q192E/V212I (enzyme)
chain: B1 chain with Y44F, G49S, R79H, H92T, N93E, D94G, Q170L, V210I, Q215D, S222K
B32: MTSP-1 I41R/F97W/F99L/C122S/G151N/Q192G (enzyme)
chain: VVGGTDADEGEWPWQVSLHALGQGHRCGASLISPNWLVSAAHCYIDDRGFRYSDPTQWTAFLGLHDQSQRSAPGVQERRLKRIISHPFFNDWTLDYDIALLELEKPAEYSSMVRPISLPDASHVFPAGKAIWVTGWGHTQYGGTNALILQKGEIRVINQTTCENLLPQQITPRMMCVGFLSGGVDSCGGDSGGPLSSVEADGRIFQAGVVSWGDGCAQRNKPGVYTRLPLFRDWIKENTGV
B33: MTSP-1 Q38E/H40R/I41H/F97D/F99L/C122S/Q192G (enzyme)
chain: B32 chain with Q23E, H25R, R26H, W92D, N145G
B34: MTSP-1 H40R/I41H/F97D/F99L/Q175R/Q192G/D217E/K224R (enzyme)
chain: B32 chain with H25R, R26H, W92D, S117C, N145G, Q169R, D214E, K221R
B35: MTSP-1 I41R/Y59F/G60dS/R84H/ins97aE/F97T/T98G/F99L/C122S/Q175L/Q192E/V212I (enzyme)
chain: VVGGTDADEGEWPWQVSLHALGQGHRCGASLISPNWLVSAAHCFIDDRSFRYSDPTQWTAFLGLHDQSQRSAPGVQERHLKRIISHPFFNDTEGLDYDIALLELEKPAEYSSMVRPISLPDASHVFPAGKAIWVTGWGHTQYGGTGALILQKGEIRVINQTTCENLLPQLITPRMMCVGFLSGGVDSCEGDSGGPLSSVEADGRIFQAGIVSWGDGCAQRNKPGVYTRLPLFRDWIKENTGV

target: plasma purified human complement protein C3 (human) (UniProt P01024); experiment: cell-based or functional assay
Sequence (P01024 23-667, chain 1 of 2): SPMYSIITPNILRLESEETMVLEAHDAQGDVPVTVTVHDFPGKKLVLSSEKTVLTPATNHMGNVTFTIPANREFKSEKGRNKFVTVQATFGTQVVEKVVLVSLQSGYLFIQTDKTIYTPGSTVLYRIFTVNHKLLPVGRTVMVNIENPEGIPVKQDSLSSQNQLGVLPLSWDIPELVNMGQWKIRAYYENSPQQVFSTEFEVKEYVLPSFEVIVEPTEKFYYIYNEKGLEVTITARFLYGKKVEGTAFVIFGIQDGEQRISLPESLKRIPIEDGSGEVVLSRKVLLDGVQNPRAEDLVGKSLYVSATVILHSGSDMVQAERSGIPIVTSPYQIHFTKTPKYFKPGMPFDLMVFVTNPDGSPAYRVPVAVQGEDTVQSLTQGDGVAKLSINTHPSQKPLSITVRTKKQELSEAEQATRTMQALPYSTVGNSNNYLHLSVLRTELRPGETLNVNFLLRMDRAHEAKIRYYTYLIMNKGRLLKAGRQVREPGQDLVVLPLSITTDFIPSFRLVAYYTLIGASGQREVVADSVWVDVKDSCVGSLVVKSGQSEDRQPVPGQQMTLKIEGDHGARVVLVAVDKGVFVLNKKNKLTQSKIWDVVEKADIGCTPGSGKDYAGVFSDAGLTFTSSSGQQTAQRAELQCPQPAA
Sequence (P01024 672-1663, chain 2 of 2): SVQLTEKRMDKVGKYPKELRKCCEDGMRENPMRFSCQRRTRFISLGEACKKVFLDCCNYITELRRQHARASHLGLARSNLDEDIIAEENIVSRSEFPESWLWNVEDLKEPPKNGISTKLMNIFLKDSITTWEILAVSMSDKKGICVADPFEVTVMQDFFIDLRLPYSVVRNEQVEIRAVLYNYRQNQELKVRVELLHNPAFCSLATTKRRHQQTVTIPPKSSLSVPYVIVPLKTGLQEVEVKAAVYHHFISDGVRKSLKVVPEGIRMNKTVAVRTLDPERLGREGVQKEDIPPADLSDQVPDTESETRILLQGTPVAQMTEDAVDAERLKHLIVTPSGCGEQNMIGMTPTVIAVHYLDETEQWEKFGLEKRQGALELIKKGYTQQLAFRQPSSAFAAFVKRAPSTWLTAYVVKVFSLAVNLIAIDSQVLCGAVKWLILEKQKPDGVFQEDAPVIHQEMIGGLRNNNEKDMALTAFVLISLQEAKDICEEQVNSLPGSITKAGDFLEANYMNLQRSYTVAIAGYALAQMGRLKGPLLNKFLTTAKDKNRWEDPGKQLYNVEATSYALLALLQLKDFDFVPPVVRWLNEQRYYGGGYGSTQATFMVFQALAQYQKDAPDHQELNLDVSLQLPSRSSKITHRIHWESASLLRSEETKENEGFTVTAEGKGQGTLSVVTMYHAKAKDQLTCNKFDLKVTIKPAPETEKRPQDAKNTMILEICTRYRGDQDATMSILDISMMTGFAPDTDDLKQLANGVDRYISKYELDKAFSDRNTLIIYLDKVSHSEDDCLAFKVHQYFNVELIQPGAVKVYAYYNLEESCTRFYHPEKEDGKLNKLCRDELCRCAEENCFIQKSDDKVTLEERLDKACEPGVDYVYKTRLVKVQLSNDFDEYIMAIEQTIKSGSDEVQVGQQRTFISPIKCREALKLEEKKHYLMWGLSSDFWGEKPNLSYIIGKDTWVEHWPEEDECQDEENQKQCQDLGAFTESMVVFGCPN

EC50 of hC3 cleavage	Binder
2750 nM	B1
200 nM	B2
280 nM	B3
291 nM	B4
232 nM	B5
332 nM	B6
258 nM	B7
288 nM	B8
237 nM	B9
2070 nM	B10
289 nM	B11
341 nM	B12
253 nM	B13
5560 nM	B14
148 nM	B15
288 nM	B16
9870 nM	B17
157 nM	B18

EC50 of hC3 cleavage	Binder
249 nM	B19
158 nM	B20
383 nM	B21
87 nM	B22
2080 nM	B23
274 nM	B24
8370 nM	B25
2790 nM	B26
293 nM	B27
1750 nM	B28
429 nM	B29
2450 nM	B30
102 nM	B31
97.3 nM	B32
30.9 nM	B33
21.9 nM	B34
143 nM	B35
